In article PMC5753033 one finds Kd, fraction of WH2 domains that contact actin and residual fluorescence quenching data, which are given here for two substances.

For orientation: Kd means the equilibrium constant for the complex coming apart.

Assay [1] deals with Alexa488-labeled WAVE1 WCA (human). The assay is described as follows: FRET or BRET; 7.5 nM Alexa488-labeled WAVE1 variant titrated with LatB-stabilized Atto540Q-actin; donor quenching; room temperature; 20 mM HEPES pH 7.0, 100 mM KCl, 1.5 mM MgCl2, 1 mM EGTA, 1 mM ATP; single site binding curve.
Assay [2] has as its target Alexa488-labeled WAVE1 PWCA (FRET donor construct) (human) (UniProt Q92558). Described as above.
Assay [3] has the same target. The assay is described as follows: FRET or BRET; competition: 7.5 nM Alexa488-WAVE1 variant premixed with 175 nM LatB-stabilized Atto540Q-actin, profilin titrated; room temperature; 20 mM HEPES pH 7.0, 100 mM KCl. (BRET reads energy transfer from a luciferase to a nearby fluorophore.)
In a further assay the target is WAVE1 PRD[D] (human) (UniProt Q92558). The assay is described as follows: AUC; sedimentation equilibrium; dye-labeled WAVE1 PRD variant with an excess of profilin (for PRD[B] 91.2, 44.8 and 21.7 μM); three speeds; 20°C; 25 mM HEPES pH 7.0, 50 mM KCl, 1 mM MgCl2, 1 mM EGTA, 0.5 mM TCEP; two-site independent model with one site fixed to the non-specific affinity.
A further assay has as its target WAVE1 PRD[B] (human) (UniProt Q92558). Described as above.
The target in a further assay is WAVE1 PRD[E] (human) (UniProt Q92558). The assay is described as above.
A further assay deals with WAVE1 PRD[A] (human) (UniProt Q92558). The assay is described as above.
The next assay deals with WAVE1 PRD[C] (human) (UniProt Q92558). The assay is described as above.
The next assay concerns the target WAVE1 PRD[F] (human) (UniProt Q92558). Described as above.

For the substance “Atto540Q-labeled actin monomers (Acanthamoeba castellanii), Latrunculin B-stabilized (natural protein)”, the Kd in assay [1] is 0.061 µM; in assay [2] it was 0.021 µM. In assay [3], this substance displayed a fraction of WH2 domains that contact actin at high profilin greater than 35%. This substance gave a residual fluorescence quenching at the highest profilin concentrations in assay [3] greater than 30%.
With “Human profilin 1 (from UniProt P07737 1-140) (natural protein)”, the Kd with WAVE1 PRD[D] (human) is greater than 10 µM; with WAVE1 PRD[B] (human), 2 µM; in the assay with WAVE1 PRD[E] (human), greater than 10 µM; with WAVE1 PRD[A] (human), greater than 10 µM; with WAVE1 PRD[C] (human), greater than 10 µM; with WAVE1 PRD[F] (human), 4 µM.
